Consider one substance from patent publication US4287300A, “Charge effects in enzyme immunoassays” (priority 1979, dated 1981).

In this data set the test system is β-galactosidase. Put plainly: β-galactosidase activity assay with ONPG substrate. The note with it: after dithioerythritol treatment and Biogel A5M chromatography. It is filed as biochemical. The procedure: C. To 1.8 ml of a 35.3 mg/ml solution of the antiHIgG was added 60 μl (10 mg/ml DMF) of m-maleimidobenzoic acid NHS ester and the mixture allowed to stand at room temperature for 30 min, followed by the addition of 0.18 ml of 1 M sodium acetate, pH 5. The reaction mixture was then dialyzed 2×500 ml (degassed) 20 mM sodium acetate, pH 5, 0.15 M NaCl for 1 hr at room temperature. To a solution of 5 ml of β-galactosidase (1.47 mg/ml) was added 0.2 ml of 0.5 M phosphate, pH 7, followed by 2 ml of the above reaction product at a concentration of 31.1 mg/ml and the mixture incubated at room temperature for 4 hrs. The reaction was terminated by the addition of 0.2 ml of 10 mM cysteine-HCl and incubating for 0.5 hr to yield a final volume of 7.4 ml. […] Fractions 24 to 33 were collected to provide a volume of 50 ml with an optical density at 280 nm of 0.540 and a molar ratio of antibody to enzyme of about 5:1. […] Assaying for the enzyme employed a 10 μl fraction dissolved in 0.5 ml PBS, N3, Mg, RSA combined with 0.1 ml 20 mM ONPG in 0.4 ml buffer and measuring the rate at 37° at 420 nm for the interval between 10 to 20 secs after addition of the substrate.
D. The above procedure was repeated as follows. […] The assays were performed at 37° C., reading at 420 nm employing an assay solution of 10 μl of the conjugate, 0.9 ml PBS, N3, Mg, RSA and 0.1 ml of substrate (20 mM ONPG).

For “β-galactosidase: β-galactosidase (Boehringer 150797), treated with dithioerythritol and chromatographed on Biogel A5M”, the enzyme activity was 477 u/mg of protein.
